{"source": "paper PMC8115288", "about": "(2021)", "key": {"[1]": {"molecular_target": "T1, GST-CTD (C-terminal domain of HIV-1 integrase, aa 201-288) (HIV-1 (Hx3B), UniProt P04585 1348-1435)", "T1 chain": "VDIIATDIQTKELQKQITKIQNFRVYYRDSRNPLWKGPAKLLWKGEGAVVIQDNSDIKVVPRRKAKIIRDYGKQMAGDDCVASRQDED", "assay": "GST-CTD 0.083 uM"}, "[2]": {"molecular_target": "T1, GST-CTD (C-terminal domain of HIV-1 …)", "assay": "GST-CTD 0.027 uM"}}}
{"binder": "His6-SUMO-INI1_(183-304) (domain or fragment) PEVLVPIRLDMEIDGQKLRDAFTWNMNEKLMTPEMFSEILCDDLDLNPLTFVPAIASAIRQQIESYPTDSILEDQSDQRVIIKLNIHVGNISLVDQFEWDMSEKENSPEKFALKLCSELGLG", "values": [{"measurement": "Kd", "setting": "[1]", "result": 3, "unit": "nM"}, {"measurement": "Kd", "setting": "[2]", "result": 3.5, "unit": "nM"}]}
